The values below come from US6727407 (University of California, dated 2004).

The target of this experiment is T1, GST-CCA1 (Arabidopsis thaliana, UniProt P92973 1-608).
T1 construct: Immobilized on glutathione-agarose beads; also called pGEX-CCA1 product; not shown: glutathione-S-transferase (GST) of pGEX-3X (Pharmacia)
The experiment can be described thus: GST pull-down of 35S-labeled in vitro translated protein, SDS-PAGE autoradiography. How it is done: CK2 subunits and GBF4 labeled with [^35S]methionine were synthesized by coupled transcription-translation with wheat germ extract (Promega TNT). For in vitro binding, 20 µl of the reactions were added to 200 µl of binding buffer [20 mM Hepes pH 7.6, 100 mM KCl, 10% glycerol, 5 mM EDTA, 0.02% NP40, 1 mM dithiothreitol (DTT), 5 mg/ml bovine serum albumin (BSA)] followed by 10 µl of glutathione-agarose beads with bound GST or GST-CCA1 and incubated at 4° C. The beads were washed with binding buffer, then with binding buffer without BSA. Bound proteins were eluted with 1X SDS-polyacrylamide gel electrophoresis (PAGE) sample buffer and resolved by 12.5% SDS-PAGE. ^35S-labeled bands were detected by autoradiography, and quantitation was performed with a PhosphorImager (Molecular Dynamics).

T1 sequence (P92973 whole entry): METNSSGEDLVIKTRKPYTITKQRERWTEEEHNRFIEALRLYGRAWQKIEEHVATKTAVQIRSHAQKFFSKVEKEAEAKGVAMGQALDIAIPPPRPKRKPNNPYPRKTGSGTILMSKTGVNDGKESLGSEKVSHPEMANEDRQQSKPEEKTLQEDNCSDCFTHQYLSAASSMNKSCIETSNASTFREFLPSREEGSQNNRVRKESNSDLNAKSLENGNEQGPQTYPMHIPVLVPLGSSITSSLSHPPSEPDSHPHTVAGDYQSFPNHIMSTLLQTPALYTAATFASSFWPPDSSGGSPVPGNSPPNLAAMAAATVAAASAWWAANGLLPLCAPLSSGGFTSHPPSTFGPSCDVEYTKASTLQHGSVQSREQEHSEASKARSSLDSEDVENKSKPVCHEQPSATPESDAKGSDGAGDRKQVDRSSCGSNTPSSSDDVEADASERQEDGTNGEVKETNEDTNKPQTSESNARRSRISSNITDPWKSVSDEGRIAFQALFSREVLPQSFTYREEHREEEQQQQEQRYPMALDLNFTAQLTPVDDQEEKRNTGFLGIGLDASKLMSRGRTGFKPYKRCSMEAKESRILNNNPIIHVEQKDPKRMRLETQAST

B1: GBF4, a bZIP transcription factor (35S-labeled, in vitro translated) (other, UniProt P42777 1-270, looked up)
chain: MASFKLMSSSNSDLSRRNSSSASSSPSIRSSHHLRPNPHADHSRISFAYGGGVNDYTFASDSKPFEMAIDVDRSIGDRNSVNNGKSVDDVWKEIVSGEQKTIMMKEEEPEDIMTLEDFLAKAEMDEGASDEIDVKIPTERLNNDGSYTFDFPMQRHSSFQMVEGSMGGGVTRGKRGRVMMEAMDKAAAQRQKRMIKNRESAARSRERKQAYQVELETLAAKLEEENEQLLKEIEESTKERYKKLMEVLIPVDEKPRPPSRPLSRSHSLEW
modifications: [35S]methionine label
notes: Negative control
For B1, the binding result is given as “no binding”.
